Test results published in patent US20230313217A1, “CHLOROPLAST TARGETING PEPTIDES AND CONJUGATES AND COMPOSITIONS THEREOF” (The Regents of the University of California, priority 2021, published 2023).
Ends that are not written are not given here.

Experiments:
[1] = Hydrodynamic size by dynamic light scattering; assay type: physicochemical; conditions: 10 mM TES buffer, pH 7
Procedure: The resulting PEI-SWCNT suspension was characterized by measuring the absorbance spectra on a UV-vis absorbance spectrophotometer (UV-2600, Shimadzu). The quality of the SWCNT suspension was determined by analyzing absorbance peaks at 632 nm. This measurement was performed with triplicates. The concentration of the PEI-SWCNT was determined spectrophotometrically using the absorption value at 632 nm and utilizing the equation (absorbance at 632 nm/extinction coefficient of 0.036)=mg L^−1. The final concentration obtained after purification ranged from 18 to 30 mg/L. The nanoparticle ζ potential was measured using a Zetasizer (Nano ZS, Malvern Instruments) in samples suspended in 10 mM TES buffer pH 7.0, with 0.1 mM NaCl. The hydrodynamic size was measured using Zetasizer (Nano ZS, Malvern Instruments) in samples suspended in a 10 mM TES buffer at pH 7.
Characterization of Nanomaterials. All nanomaterials were characterized by absorbance UV-vis spectroscopy (UV-2600 Shimadzu), hydrodynamic size (Nano S), and ζ potential (Nano ZS). The nanomaterial ζ potential and hydrodynamic diameter were measured in a 10 mM TES buffer (pH 7.0). The ζ potential measurements were performed in 0.1 mM NaCl to improve conductivity and analyzed by the Hückel approximation model.^111 CD fluorescence emission was collected using a fluorescence spectrometer (Horiba PTI QM-400). […]

[2] = test system: chloroplast DNA; conditions: in vivo
Procedure: Chloroplasts were isolated from Arabidopsis leaves through a centrifugation gradient method in sucrose buffer.^1-3 Intact chloroplasts were isolated from leaves exposed to targeted and non-targeted CDs and pATV1-SWCNT, and buffer as control (10 mM TES pH 7.3) in 0.1% Silwet (v/v) for one day or five days. Following foliar spray with nanomaterials as explained above, 4 g of leaf tissue was collected from seven plants per treatment. Treated tissue was harvested, and ground in ice-cold 1× chilled sucrose buffer (pH 7.3, 28 mM Na2HPO4, 22 mM KH2PO4, 2.5 mM MgCl2, 400 mM sucrose, and 10 mM KCl). […]
DNA was extracted from plant leaf tissue and prepared using a Quick-DNA Plant/Seed DNA Miniprep kit (Zymo) in leaf samples treated with nanomaterials from one to five days. […] The DNA extraction was performed according to the manufacturer's instructions (zymoresearch.com) and concentrations were measured using a Nanodrop ND-1000 Spectrophotometer. […]
We determined the amount of oxidative DNA damage in plant leaves treated with nanomaterials for one day or five days using an enzyme-linked immunosorbent assay (ELISA) for 8-hydroxydeoxyguanosine (8-OHdG). The OxiSelect™ Oxidative DNA Damage ELISA Kit (Cat# STA-320, Cell Biolabs, inc.) quantifies the amount of 8-OHdG in isolated DNA samples from plant leaf tissue or isolated chloroplast suspensions. […]

[3] = test system: Arabidopsis leaf tissues; assay: Chlorophyll content index (SPAD) measurements; assay type: in vivo, Arabidopsis thaliana; conditions: 20 mg/L / 2 mg/L
Procedure: Chlorophyll content index (CCI) was measured in plants treated one and five days after treatment with nanomaterials and buffer control solution (10 mM TES, pH 7.0). Three-week-old Arabidopsis plants were exposed to β-CD, TP-β-CD, pATV1-SWCNT, or TP-pATV1-SWCNT. The CCI measurements were performed using chlorophyll meters (SPAD-502 plus, Konica Minolta, Tokyo, Japan; CCI readout resolution: 0.1) with each leaf being measured three times for CCI readouts. The onset of leaf senescence was determined by a marked decrease in chlorophyll levels (FIG. 14B). Experiments before 4-weeks of development are ideal to avoid plant senescence symptoms such as the increase in programmed cell death rates and decrease in chlorophyll content.^6-9

[4] = test system: Arabidopsis leaf mesophyll tissue; assay: Plant cell viability assay (propidium iodide, percentage of dead cells); assay type: in vivo, Arabidopsis thaliana
Procedure: Impact of Targeted Nanomaterials on Plant Cell Viability. We investigated the viability of plant cells treated with increasing concentrations of targeted and nontargeted nanomaterials by measuring the percentage of dead plant cells. Arabidopsis leaf tissues were treated with targeted nanomaterials at 20, 100, 500 mg/L concentrations of TP-β-CDs or 2, 5, 10 mg/L of TP-pATV1-SWCNTs (FIG. 6, Table 1). Biocompatibility assays were performed up to 5 days of nanocarrier exposure before control Arabidopsis plants experienced the onset of leaf senescence marked by significant changes in chlorophyll levels (FIG. 15A). On day 7, significant differences in chlorophyll were detected in control Arabidopsis plants without nanomaterials. […] Therefore, subsequent experiments assessing the impact of targeted nanocarriers on plant cell and molecular biology were focused on biocompatible concentrations of 20 mg/L for TP-β-CDs and 2 mg/L for TP-pATV1-SWCNTs.
The percentage of intact cells was determined in Arabidopsis thaliana leaf tissues treated with TP-β-CD (20, 100, 500 mg/L) or TP-pATV1-SWCNT (2, 5, 10 mg/L) from one to five days. The nuclei of dead cells were stained with propidium iodide (PI) diluted to 1× concentration manufactures (Plant cell viability assay kit, PA0100, Sigma-Aldrich). Leaf discs were collected and incubated in PI dye for 15 minutes before confocal analysis. PI can enter cells with damaged membranes, and bind to double-stranded nucleic acids in non-viable cells. […] The total number of cells was determined using chloroplast autofluorescence to identify the leaf mesophyll cell boundaries. The leaf disc surface was washed with DI water to remove the residual dye and mounted on a microscope glass slide for imaging by laser scanning confocal microscope (TCS SP5, Leica Microsystems, Germany). Confocal imaging settings were as follows: ×40 wet objective (Leica Microsystems, Germany), propidium iodide dye excitation by a 543 nm laser (40% power), and PMT emission detection range set to 590-630 nm with Pinhole size set to 3 airy units.

[5] = test system: isolated chloroplasts; assay: Intact chloroplast analysis by DIC microscopy; set-up: species or system Arabidopsis thaliana; conditions: 1 and 5 days, 20 mg/L / 2 mg/L
Excerpt: Interactions of Targeted Carbon Nanostructures with Plant Cell and Chloroplast Membranes. Damage to plant lipid membranes may cause ion and molecule permeability changes across the membrane, interruption of metabolic processes, intracellular signaling, and trafficking of biomolecules.^65,66 The application of targeted nanostructures with high charge allows penetration of plant cell barriers and localization inside organelles that could cause disruption in lipid membrane integrity. Plant cell membrane intactness in leaves treated with TP-β-CDs or TP-pATV1-SWCNTs (Table 1) was assessed by staining dead cells with propidium iodide (PI) dye followed by imaging under confocal microscopy (FIG. 7A). PI is a nonpermeable dye that only crosses the cell membranes when they are damaged. The overall percentage of intact cells without PI stained nuclei was calculated relative to the total number of cells (FIG. 7B). […] Both TP-β-CDs and TP-pATV1-SWCNTs maintained more than 93% of plant cells with intact membranes after 1 and 5 days of exposure, similar to controls without nanoparticles (FIG. 7B). […]
Identification of intact chloroplast was performed as reported in previous studies^4,5 with some modifications. […] The average from ten images from each of the seven biological replicates was quantified for calculating the average percentage of intact chloroplasts.

## TP-β-CD: carbon dots with β-cyclodextrin molecular baskets covalently bonded to chloroplast targeting peptide MASSMLSSATMVGGC (SEQ ID NO:5) (also: covalently bonded to carbon dots with β-cyclodextrin, site not given here)
[1]
  hydrodynamic size (DLS): 27.8±5.8 nm
[2]
  oxidative damage to isolated chloroplast DNA: not affected
[3]; after 1 day of exposure
  chlorophyll content index (CCI): 35.5±1.4
[3]; after 5 days of exposure
  chlorophyll content index (CCI): 38.0±2.8
[4]; Arabidopsis leaves, up to 5 days
  biocompatible concentration: 20 mg/L
[4]; TP-β-CD 20 mg/L, TP-pATV1-SWCNT 2 mg/L, summary
  percentage of dead cells: 6%
[4]; after 5 days of exposure, TP-β-CDs 20 mg/L, TP-pATV1-SWCNTs 2 mg/L
  percentage of dead cells compared to control plants: no significant differences
[4]; day 1, TP-β-CDs 20 mg/L, TP-pATV1-SWCNTs 2 mg/L
  plant dead cells relative to controls without nanoparticles: no significant differences
[4]; day 5, 100 mg/L
  percentage of dead cells: 20.0±4.8%
[4]; day 5, 500 mg/L
  percentage of dead cells: 23.4±4.8%
[5]
  chloroplast membrane intactness: did not affect chloroplast membrane damage
